Measured values: PMC7538601, “Low-Zone IL-2 Signaling: Fusion Proteins Containing Linked CD25 and IL-2 Domains Sustain Tolerogenic Vaccination in vivo and Promote Dominance of FOXP3^+ Tregs in vitro” (Frontiers in Immunology, 2020)

T1: Full length murine CD25 on HEK cells (mouse, UniProt P01590 22-268)
T1 sequence (looked up): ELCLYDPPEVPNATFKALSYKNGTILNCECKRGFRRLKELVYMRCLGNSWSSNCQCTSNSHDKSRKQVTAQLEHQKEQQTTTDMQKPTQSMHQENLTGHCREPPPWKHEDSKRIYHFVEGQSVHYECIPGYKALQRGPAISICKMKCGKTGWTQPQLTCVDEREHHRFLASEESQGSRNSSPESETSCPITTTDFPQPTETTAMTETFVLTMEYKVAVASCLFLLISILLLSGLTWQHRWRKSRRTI


What was measured:
[1] = target: the molecule itself; experiment: SEC; Superdex 200 Increase 10/300 GL, 0.5 ml/min, 10 mM HEPES pH 7.3, 140 mM NaCl; 500 ul sample at 0.5 mg/ml; apparent molecular weights against Bio-Rad gel filtration standard
[2] = target: T1, Full length murine CD25 on HEK cells; experiment: cell-based or functional assay

Binder	binding result [1]	proliferation ([3H]thymidine) of the IL-2 dependent mouse T cell line SJL-PLP.1; potency against mouse IL-2 [2]
CD25-IL2 fusion protein (other, mouse, signal peptide in the construct; murine soluble CD25 (IL-2 receptor alpha chain), aa1-236 of NP_032393; 23-aa flexible linker; murine IL-2, aa20-169 of NP_032392; Glycosylated; about 70 kDa on SDS-PAGE, reducing and non-reducing; By SEC it runs as higher order multimers; also called CD25-IL2 FP; FP; source: HEK293F, stably transfected (pCMV), expression supernatant, purified (Ni-NTA); not shown: …) ELCLYDPPEVPNATFKALSYKNGTILNCECKRGFRRLKELVYMRCLGNSWSSNCQCTSNSHDKSRKQVTAQLEHQKEQQTTTDMQKPTQSMHQENLTGHCREPPPWKHEDSKRIYHFVEGQSVHYECIPGYKALQRGPAISICKMKCGKTGWTQPQLTCVDEREHHRFLASEESQGSRNSSPESETSCPITTTDFPQPTETTAMTETFVLTMEYKGGGGSTRGGGGSTGGGGSGGGGSSAPTSSSTSSSTAEAQQQQQQQQQQQQHLEQLLMDLQELLSRMENYRNLKLPRMLTFKFYLPKQATELKDLQCLEDELGPLRHVLDLTQSKSFQLEDAENFISNIRVTVVKLKGSDNTFECQFDDESATVVDFLRRWIAFCQSIISTSPQ	binds	~32 fold less potent than IL-2
IL2-CD25 fusion protein (other, mouse, signal peptide in the construct; murine IL-2, aa1-169 of NP_032392; 23-aa flexible linker; murine soluble CD25 (IL-2 receptor alpha chain), aa22-236 of NP_032393; Glycosylated; about 70 kDa on SDS-PAGE, reducing and non-reducing; By SEC it runs as higher order multimers; also called IL2-CD25 FP; FP; source: HEK293F, stably transfected (pIRES AcGFP1), expression supernatant, purified (Ni-NTA); not …) APTSSSTSSSTAEAQQQQQQQQQQQQHLEQLLMDLQELLSRMENYRNLKLPRMLTFKFYLPKQATELKDLQCLEDELGPLRHVLDLTQSKSFQLEDAENFISNIRVTVVKLKGSDNTFECQFDDESATVVDFLRRWIAFCQSIISTSPQGGGGSTRGGGGSTGGGGSGGGGSELCLYDPPEVPNATFKALSYKNGTILNCECKRGFRRLKELVYMRCLGNSWSSNCQCTSNSHDKSRKQVTAQLEHQKEQQTTTDMQKPTQSMHQENLTGHCREPPPWKHEDSKRIYHFVEGQSVHYECIPGYKALQRGPAISICKMKCGKTGWTQPQLTCVDEREHHRFLASEESQGSRNSSPESETSCPITTTDFPQPTETTAMTETFVLTMEYK	binds	~320 fold less potent than IL-2
